Laboratory results: patent publication US20150337037A1 (MSM PROTEIN TECHNOLOGIES, published 2015)
Where two headings read alike, the source gives them in different places.

T1: human chemokine receptor CCR6 (human, UniProt P51684 1-374)
T1 sequence (looked up): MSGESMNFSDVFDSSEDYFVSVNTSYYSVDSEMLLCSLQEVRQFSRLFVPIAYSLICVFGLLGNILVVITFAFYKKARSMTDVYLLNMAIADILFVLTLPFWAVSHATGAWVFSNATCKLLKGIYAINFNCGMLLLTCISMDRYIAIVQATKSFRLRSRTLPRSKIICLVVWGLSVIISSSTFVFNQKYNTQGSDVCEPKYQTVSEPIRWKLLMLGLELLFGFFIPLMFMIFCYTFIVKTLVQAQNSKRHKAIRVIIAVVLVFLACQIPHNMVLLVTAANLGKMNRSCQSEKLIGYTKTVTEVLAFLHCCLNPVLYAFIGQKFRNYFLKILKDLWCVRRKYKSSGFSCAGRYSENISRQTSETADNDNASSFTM

T2: human CXCR2 (human, UniProt P25025 1-360)
T2 construct: whole, on cells
T2 sequence (looked up): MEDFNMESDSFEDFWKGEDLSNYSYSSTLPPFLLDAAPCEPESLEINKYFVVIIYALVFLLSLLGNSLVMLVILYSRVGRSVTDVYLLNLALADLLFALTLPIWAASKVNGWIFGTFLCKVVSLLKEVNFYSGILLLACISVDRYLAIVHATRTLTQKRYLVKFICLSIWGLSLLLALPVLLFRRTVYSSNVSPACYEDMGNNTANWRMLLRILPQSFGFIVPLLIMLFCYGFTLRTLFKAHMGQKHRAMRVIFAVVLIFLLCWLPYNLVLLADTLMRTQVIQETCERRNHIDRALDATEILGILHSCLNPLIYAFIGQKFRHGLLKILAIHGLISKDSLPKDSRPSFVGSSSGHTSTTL

T3: mouse CCR6 (mouse, UniProt O54689 1-367)
T3 construct: whole, on cells; gene derived from a cDNA library; also called CCR6 mouse
T3 sequence (looked up): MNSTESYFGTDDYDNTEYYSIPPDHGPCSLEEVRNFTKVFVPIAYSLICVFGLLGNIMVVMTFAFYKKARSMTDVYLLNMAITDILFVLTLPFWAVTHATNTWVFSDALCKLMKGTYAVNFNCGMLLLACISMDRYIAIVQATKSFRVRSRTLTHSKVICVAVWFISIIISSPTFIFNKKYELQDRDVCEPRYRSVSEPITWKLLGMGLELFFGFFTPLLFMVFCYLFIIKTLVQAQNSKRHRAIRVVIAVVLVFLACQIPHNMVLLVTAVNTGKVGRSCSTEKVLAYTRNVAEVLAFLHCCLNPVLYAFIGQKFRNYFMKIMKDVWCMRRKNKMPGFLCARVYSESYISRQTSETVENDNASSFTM

T4: mouse CCR7 (mouse, UniProt P47774 25-378)
T4 construct: whole, on cells; also called CCR7ms
T4 sequence (looked up): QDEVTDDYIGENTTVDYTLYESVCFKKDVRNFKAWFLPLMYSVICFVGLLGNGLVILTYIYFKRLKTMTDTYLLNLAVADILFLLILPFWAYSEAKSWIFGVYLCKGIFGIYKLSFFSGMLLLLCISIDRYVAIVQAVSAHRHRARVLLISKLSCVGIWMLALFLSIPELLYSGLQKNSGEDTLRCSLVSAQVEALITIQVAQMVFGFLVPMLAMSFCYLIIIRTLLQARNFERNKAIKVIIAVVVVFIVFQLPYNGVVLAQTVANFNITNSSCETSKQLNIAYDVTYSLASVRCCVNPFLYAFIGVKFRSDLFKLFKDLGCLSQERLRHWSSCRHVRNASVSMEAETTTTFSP


Assays:
[1] = target: T1, human chemokine receptor CCR6; experiment: cell-based or functional assay
[2] = target: T1, human chemokine receptor CCR6; experiment: flow cytometry on cells expressing the target, antibody titration
cynomolgus monkey CCR6 [3] = target: T5, cynomolgus monkey CCR6 (cynomolgus monkey (Macaca Fascicularis)); experiment: as above
T5 construct: whole, on cells; gene derived from a total RNA library; also called CCR6 cyno; cyno CCR6

human CXCR2 = target: T2, human CXCR2; experiment: flow cytometry on GPCR-expressing cell panel
mouse CCR6 [4] = target: T3, mouse CCR6; experiment: flow cytometry on CHO cells expressing mouse CCR6
cynomolgus monkey CCR6 [5] = target: T5, cynomolgus monkey CCR6; experiment: flow cytometry on cells expressing the target, IgG1 titration, anti-human Fc-PE
[6] = target: T1, human chemokine receptor CCR6; experiment: flow cytometry on cells expressing the target, IgG1 titration (repeat of Table 2)
cynomolgus monkey CCR6 [7] = target: T5, cynomolgus monkey CCR6; experiment: as above
[8] = target: T1, human chemokine receptor CCR6; experiment: flow cytometry on R1610 cells expressing human CCR6, IgG1 titration, anti-human Fc-PE
human CXCR6 = target: T6, human CXCR6 (human, UniProt O00574 1-342); experiment: flow cytometry on GPCR-expressing cell panel
T6 construct: whole, on cells
T6 sequence (O00574 whole entry): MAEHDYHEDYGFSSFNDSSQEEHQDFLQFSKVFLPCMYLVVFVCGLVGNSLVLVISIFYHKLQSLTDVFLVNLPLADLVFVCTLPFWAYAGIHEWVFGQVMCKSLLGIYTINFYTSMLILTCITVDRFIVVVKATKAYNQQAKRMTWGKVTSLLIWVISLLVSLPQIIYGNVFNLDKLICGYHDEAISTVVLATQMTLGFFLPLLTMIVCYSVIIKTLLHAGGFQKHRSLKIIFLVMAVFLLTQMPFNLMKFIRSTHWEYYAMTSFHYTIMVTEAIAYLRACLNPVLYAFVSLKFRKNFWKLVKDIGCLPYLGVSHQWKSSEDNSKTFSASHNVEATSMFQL

mouse CCR7 = target: T4, mouse CCR7; experiment: flow cytometry on GPCR-expressing cell panel
[9] = target: T1, human chemokine receptor CCR6; experiment: flow cytometry on cells expressing the target, IgG1 titration, anti-human Fc-PE
mouse CCR6 [10] = target: T3, mouse CCR6; experiment: as above
mouse CCR6 [11] = target: T3, mouse CCR6; experiment: flow cytometry on cells expressing the target, IgG1 titration (repeat of Table 2)
[12] = target: T1, human chemokine receptor CCR6; experiment: cell-based or functional assay; remark: listed apart in the source
[13] = target: T1, human chemokine receptor CCR6; experiment: cell-based or functional assay; remark: listed apart in the source
mouse CCR6 [14] = target: T3, mouse CCR6; experiment: flow cytometry on CHO cells expressing mouse CCR6; remark: listed apart in the source
Experimental: Cells have been incubated with fully human anti-human CCR6 antibodies in IgG1 format. After washing out residual unbound antibodies the cells were incubated with commercial anti-human Fc antibodies conjugated to the fluorescent dye phycoerythrin (IgG-PE). In more details, the cell staining procedure was: […] cell suspension in 10 μl FACS buffer (1×PBS, 2.0% FBS, 0.2% sodium azide) was mixed with 10 μl of 200 nM the corresponding anti-CCR6 MAB and incubated on ice for 30 min. Washing step—after the incubation 150 μl of FACS buffer was added to the cell sample, the samples were mixed gently by up-down pipetting the cell suspension. Then the samples were centrifuged at 1100 rpm for 5 minutes, and supernatants were removed. Washing step was repeated ones. Then 10 μl of anti-human PE-(Fab)2 form Jackson Immuno Research Lab. #709-116-098 diluted 40 times in FACS buffer were added to the cells and the cells were re-suspended by up-down pipetting. After 20 min. incubation on ice in dark the washing step was repeated twice. The washed cells were mixed with 100 μl of FIX buffer (0.5% Paraformaldehyde solution in PBS). Fixed samples were stored in dark on ice and analyzed by FACS on Guava PCA-96 flow cytometer.

Binder | IC50, nM (Ca-Flux) CCR6/CCL20 [1] [nM] | EC50 [2] [nM] | EC50 (cynomolgus monkey CCR6 [3]) [nM] | binding result (human CXCR2) | binding result (mouse CCR6 [4]) | EC50 (cynomolgus monkey CCR6 [5]) [nM] | EC50 [6] [nM] | EC50 (cynomolgus monkey CCR6 [7]) [nM] | EC50 [8] [nM] | binding result (human CXCR6) | binding result (mouse CCR7) | EC50 [9] [nM] | EC50 (mouse CCR6 [10]) [nM] | EC50 (mouse CCR6 [11]) [nM] | IC50, nM CCL20-Ca-Flux [12] [nM] | Ca-Flux IC50, nM CCR6/CCL20 [13] [nM] | binding result (mouse CCR6 [14])
MSM-R614 IgG1 (antibody, V domains shown, Fully human IgG1) VH: EVQLLESGGGLVQPGGSLRLSCPASGFTFTRSAMSWVRQAPGKGLEWVSYINSSGGGTYYADSVKGRFTISRDNSKNTLYLQMNSLRAEDTAVYYCARARFIWGFDYWGQGTLVTVSS VL: EIVLTQSPGTLSLSPGERATLSCRASQSVSSSYLAWYQQKPGQAPRLLIYGASSRATGIPDRFSGSGSGTDFTLTISRLEPEDFAVYYCQQWYWAPVTFGQGTKVEIKR |  |  |  | binds | no binding | 3 | 2.5 | 3 | 2.5 |  |  |  |  |  |  |  | 
MSM-R605 IgG1 (antibody, Fully human IgG1) heavy: not shown light: EIVLTQSPGTLSLSPGERATLSCRASQSVSSSYLAWYQQKPGQAPRLLIYGASSRATGIPDRFSGSGSGTDFTLTISRLEPEDFAVYYCQQSRATPLTFGQGTKVEIKRTVAAPSVFIFPPSDEQLKSGTASVVCLLNNFYPREAKVQWKVDNALQSGNSQESVTEQDSKDSTYSLSSTLTLSKADYEKHKVYACEVTHQGLSSPVTKSFNRGEC |  |  |  |  |  | 1.8 | 1 | 1.8 |  | binds | binds | 1 | 1.6 | 1.6 | 1.5 | 1.5 | 

The remaining lines, values ahead:

IC50, nM (Ca-Flux) CCR6/CCL20 [1] [nM] | EC50 [2] [nM] | EC50 (cynomolgus monkey CCR6 [3]) [nM] | binding result (human CXCR2) | binding result (mouse CCR6 [4]) | EC50 (cynomolgus monkey CCR6 [5]) [nM] | EC50 [6] [nM] | EC50 (cynomolgus monkey CCR6 [7]) [nM] | EC50 [8] [nM] | binding result (human CXCR6) | binding result (mouse CCR7) | EC50 [9] [nM] | EC50 (mouse CCR6 [10]) [nM] | EC50 (mouse CCR6 [11]) [nM] | IC50, nM CCL20-Ca-Flux [12] [nM] | Ca-Flux IC50, nM CCR6/CCL20 [13] [nM] | binding result (mouse CCR6 [14]) | Binder
> 500 | 2.6 | 2.9 |  |  |  |  |  |  |  |  |  |  |  |  |  |  | MSM-R627/33 (antibody, V domains shown, also called MSM 627 HC/JSJ R633LC) VH: EVQLLESGGGLVQPGGSLRLSCAASGFTISSYMAWVRQAPGKGLEWVSSISPSSGSTYYADSVKGRFTISRDNSKNTLYLQMNSLRAEDTAVYYCARSMWSKQMHRYGLDYWGQGTLVTVSS VL: EIVLTQSPGTLSLSPGERATLSCRASQSVSSSYLAWYQQKPGQAPRLLIYGASSRATDIPDRFSGSGSGTDFTLTISRLEPEDFAVYYCQQSYSDPITFGQGTKVEIK
 |  |  |  |  | 14.5 | 25 | 14.5 |  |  |  | 25 |  |  |  |  | no binding | MSM-R601 IgG1 (antibody, V domains shown, Fully human IgG1 made in transiently transfected CHO cells; HC AA / LC AA entries are full chains) VH: EVQLLESGGGLVQPGGSLRLSCAASGFTFSSYAMSWVRQAPGKGLEWVSAISGSGGSTYYADSVKGRFTISRDNSKNTLYLQMNSLRAEDTAMYYCARHGYSATRQGLDYWGQGTLVTVSS VL: not shown
